For 1 molecule, koff results are on record in PMC8012516 (2021).

In general, koff refers to the rate constant with which the complex falls apart. Read a low koff as a long-lived complex.

In experiment [1] the target is angiotensin-converting enzyme 2 (UniProt Q9BYF1 18-805). The experiment is described as follows: SPR.
Experiment [2] addresses S-receptor-binding domain (RBD)-Fc of SARS-CoV-2 (SARS-CoV-2, UniProt P0DTC2). The experiment is described as follows: SPR. Background: Surface plasmon resonance follows binding to a sensor surface in real time, without labels.

angiotensin-converting enzyme 2, sequence (Q9BYF1 18-740): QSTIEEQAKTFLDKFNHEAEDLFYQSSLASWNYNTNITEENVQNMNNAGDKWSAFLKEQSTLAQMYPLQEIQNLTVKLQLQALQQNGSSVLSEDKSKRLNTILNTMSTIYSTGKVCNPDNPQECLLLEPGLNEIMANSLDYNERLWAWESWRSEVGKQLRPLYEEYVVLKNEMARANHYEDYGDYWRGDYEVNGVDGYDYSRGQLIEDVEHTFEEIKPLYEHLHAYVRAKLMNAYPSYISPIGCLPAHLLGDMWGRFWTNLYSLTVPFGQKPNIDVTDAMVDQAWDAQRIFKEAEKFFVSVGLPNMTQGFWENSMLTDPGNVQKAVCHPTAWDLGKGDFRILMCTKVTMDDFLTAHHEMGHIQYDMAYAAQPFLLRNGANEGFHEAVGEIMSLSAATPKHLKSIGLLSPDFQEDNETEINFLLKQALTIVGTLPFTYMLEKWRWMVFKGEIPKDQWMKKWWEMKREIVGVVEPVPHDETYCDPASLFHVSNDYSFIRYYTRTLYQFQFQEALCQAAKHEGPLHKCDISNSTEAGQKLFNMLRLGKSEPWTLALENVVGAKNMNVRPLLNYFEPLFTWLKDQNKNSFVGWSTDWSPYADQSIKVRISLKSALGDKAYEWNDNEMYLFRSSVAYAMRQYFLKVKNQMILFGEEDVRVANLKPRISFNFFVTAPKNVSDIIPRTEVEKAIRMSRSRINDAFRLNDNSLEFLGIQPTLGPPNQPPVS

With VQWRIRVAVIRK [antibacterial peptide DP7], the koff amounted to 0.00918 s⁻¹ in experiment [1] and 0.00501 s⁻¹ in experiment [2].
